Patent US12076374B1, “Anti-microbial and anti-inflammatory compositions and methods for treating enteric diseases in animals” (Vets Plus, Inc., priority 2019, dated 2024)

Tests used:
Format in all cases: in vivo
Eimeria tenella = assay: E. tenella infection (coccidiosis) in broiler chickens, growth performance and oocysts
PEDV = PEDV newborn piglets, dose response of ovotransferrin drench with or without ORS; details: for % Survival: 100 ml drench twice daily, after 5 days
[1] = 28-d feeding trial in weaned pigs with diarrhea, fecal score and growth performance
Method: Weaning can be a stressful time for performance animals that are transitioning to new food and newly encountering enteric pathogens. These factors can result in diarrhea to varying degrees. The objective of this study was to evaluate the effect of supplementing dietary ovotransferrin of the invention to pigs that had slight diarrhea within a week upon weaning. Growth performance and fecal score were measured. […] Pigs with diarrhea were housed in the nursery pens with 3 pigs per pen and allowed free access to the diet and water ad-libitum for the entire experimental period. Then, they were treated with a solution mixed with electrolytes and ovotransferrin by drenching for 3 days. Ovotransferrin was produced as described in example 1. The pigs were fed test diets containing 0, 0.5, and 1.0% ovotransferrin of the invention. Body weight were recorded at day 0 (study initiation), day 7, 14, 21, and 28 postweaning. Average daily gain (ADG), average daily feed intake (ADFI) and gain:feed (G:F) ratio were calculated weekly from day 7-28 postweaning. Corn-soybean meal-based diets were used for 28 days with 2 phases (Phase 1: day 0-14 postweaning and Phase 2: day 15-28 postweaning). Ovotransferrin was added to the diets by replacing corn starch proportionally. Fecal score was recorded daily through day 14. Body weight and feed consumption were recorded weekly for the diarrhea pigs.

gut microbiome = assay: Fecal 16S rRNA microbiome analysis of newly weaned piglets with diarrhea
Text: The microbiome of newly weaned piglets with diarrhea was examined when treated with components of the invention. Fecal samples of N=3 control (C) newly weaned piglets without diarrhea (D) and for N=6 newly weaned piglets that did have diarrhea were examined. 3 of these piglets with diarrhea were randomly selected and treated (T3) with 2.5 grams/piglet/day with ovotransferrin by mixing the ovotransferrin into dry feed for 5 consecutive days. Fecal samples were taken from the Diarrhea pigs, the Treated piglets and Control piglets after 5 days trial.
Fecal samples then had DNA was extracted using the PowerSoil DNA extraction kit (QIAGEN). Extracted DNA was then sequenced where the V4 variable region of the bacterial 16S rRNA gene was amplified (Primers 515F and 806R) and libraries constructed using a dual index approach1. 16SrRNA libraries were sequenced on a MiSeq V3 instrument (Illumina), targeting 2×300 PE reads. Bioinformatics occurred by processing of amplicons that was based on protocols that rely on several open-source software (FastQC2, cutadapt3, bbmap4 and the DADA25 plugin within QIIME26) to remove adaptors and primer sequences, merge PE reads, filter out low quality reads and generate counts of unique Amplicon Sequence Variants (ASVs) or unique taxonomic groups that represent the abundance of species and/or strains in each sample. […]

[2] = 0.5% ovotransferrin in diet, d 7-14
[3] = 0.5% ovotransferrin in diet, d 7-28
[4] = 0.5% ovotransferrin in diet, d 14-21
[5] = 0.5% ovotransferrin in diet, d 21-28
[6] = 1% ovotransferrin in diet, d 7-14
[7] = 1% ovotransferrin in diet, d 7-28
[8] = 1% ovotransferrin in diet, d 14-21
[9] = 1% ovotransferrin in diet, d 21-28

B1: ovotransferrin (protein, UniProt P02789 20-705, looked up)
Ovotransferrin: APPKSVIRWCTISSPEEKKCNNLRDLTQQERISLTCVQKATYLDCIKAIANNEADAISLDGGQAFEAGLAPYKLKPIAAEVYEHTEGSTTSYYAVAVVKKGTEFTVNDLQGKTSCHTGLGRSAGWNIPIGTLLHRGAIEWEGIESGSVEQAVAKFFSASCVPGATIEQKLCRQCKGDPKTKCARNAPYSGYSGAFHCLKDGKGDVAFVKHTTVNENAPDQKDEYELLCLDGSRQPVDNYKTCNWARVAAHAVVARDDNKVEDIWSFLSKAQSDFGVDTKSDFHLFGPPGKKDPVLKDLLFKDSAIMLKRVPSLMDSQLYLGFEYYSAIQSMRKDQLTPSPRENRIQWCAVGKDEKSKCDRWSVVSNGDVECTVVDETKDCIIKIMKGEADAVALDGGLVYTAGVCGLVPVMAERYDDESQCSKTDERPASYFAVAVARKDSNVNWNNLKGKKSCHTAVGRTAGWVIPMGLIHNRTGTCNFDEYFSEGCAPGSPPNSRLCQLCQGSGGIPPEKCVASSHEKYFGYTGALRCLVEKGDVAFIQHSTVEENTGGKNKADWAKNLQMDDFELLCTDGRRANVMDYRECNLAEVPTHAVVVRPEKANKIRDLLERQEKRFGVNGSEKSKFMMFESQNKDLLFKDLTKCLFKVREGTTYKEFLGDKFYTVISSLKTCNPSDILQMCSFLEGK
Weight (g) in chickens infected with E. tenella (Eimeria tenella; 0.5% ovotransferrin in feed day 7 through 21, Day 7): 110 ± 5 g | Weight (g) in chickens infected with E. tenella (Eimeria tenella; 0.5% ovotransferrin in feed, Day 14 (day of infection)): 283 ± 10 g | Weight (g) in chickens infected with E. tenella (Eimeria tenella; 0.5% ovotransferrin in feed, Day 21): 470 ± 15 g | Weight (g) in chickens infected with E. tenella (Eimeria tenella; 1.0% ovotransferrin in feed, Day 7): 115 ± 6 g | Weight (g) in chickens infected with E. tenella (Eimeria tenella; 1.0% ovotransferrin in feed, Day 14): 293 ± 14 g | Weight (g) in chickens infected with E. tenella (Eimeria tenella; 1.0% ovotransferrin in feed, Day 21): 529 ± 22 g | Weight (g) in chickens infected with E. tenella (Eimeria tenella; 2.0% ovotransferrin in feed, Day 7): 115 ± 6 g | Weight (g) in chickens infected with E. tenella (Eimeria tenella; 2.0% ovotransferrin in feed, Day 14): 293 ± 14 g | Weight (g) in chickens infected with E. tenella (Eimeria tenella; 2.0% ovotransferrin in feed, Day 21): 571 ± 15 g | Oocysts count in fecal sample (Eimeria tenella; as compared with positive infected control, *p<0.01): significantly lower | Histopathology of cecum (Eimeria tenella; cecum samples at end of experiment, versus positive infected control): normal structures of cecal epithelium | E. tenella infection (Eimeria tenella; given alone in feed): inhibited E. tenella infection | Feed conversion rate (Eimeria tenella; treated groups, E. tenella infected broiler chickens): higher | % Survival (PEDV; 2 grams of ovotransferrin in water): 40% | Defecations/day/group (PEDV; 2 grams of ovotransferrin, Day 0): 30 Defecations/day/group | Defecations/day/group (PEDV; 2 grams of ovotransferrin, Day 1): 18 Defecations/day/group | Defecations/day/group (PEDV; 2 grams of ovotransferrin, Day 3): 14 Defecations/day/group | Defecations/day/group (PEDV; 2 grams of ovotransferrin, Day 5): 12 Defecations/day/group | % Survival (PEDV; 5 grams of ovotransferrin in water): 60% | Defecations/day/group (PEDV; 5 grams of ovotransferrin, Day 0): 26 Defecations/day/group | Defecations/day/group (PEDV; 5 grams of ovotransferrin, Day 1): 18 Defecations/day/group | Defecations/day/group (PEDV; 5 grams of ovotransferrin, Day 3): 15 Defecations/day/group | Defecations/day/group (PEDV; 5 grams of ovotransferrin, Day 5): 12 Defecations/day/group | Fecal score ([1]; 0.5% ovotransferrin in diet, d 0-7, scale ≤1 normal to 4 liquid, severe diarrhea): 1.81 | Fecal score ([1]; 0.5% ovotransferrin in diet, d 0-14 (Phase 1), scale ≤1 normal to 4 severe diarrhea): 1.80 | Fecal score ([1]; 0.5% ovotransferrin in diet, d 0-28 (Overall), scale ≤1 normal to 4 severe diarrhea): 1.68 | ADFI (average daily feed intake) [1, 2]: 581.17 g/day | ADG (average daily gain) [1, 2]: 356.06 g/day | G:F (gain:feed ratio) [1, 2]: 0.613 | Fecal score ([1]; 0.5% ovotransferrin in diet, d 7-14, scale ≤1 normal to 4 severe diarrhea): 1.79 | ADFI (average daily feed intake) [1, 3]: 868.33 g/day | ADG (average daily gain) [1, 3]: 540.76 g/day | G:F (gain:feed ratio) [1, 3]: 0.623 | Body weight ([1]; 0.5% ovotransferrin in diet, d 7 postweaning): 7.87 kg | Body weight ([1]; 0.5% ovotransferrin in diet, d 14): 10.37 kg | ADFI (average daily feed intake) [1, 4]: 933.98 g/day | ADG (average daily gain) [1, 4]: 566.02 g/day | G:F (gain:feed ratio) [1, 4]: 0.606 | Body weight ([1]; 0.5% ovotransferrin in diet, d 21): 14.33 kg | ADFI (average daily feed intake) [1, 5]: 1089.83 g/day | ADG (average daily gain) [1, 5]: 700.22 g/day | G:F (gain:feed ratio) [1, 5]: 0.643 | Body weight ([1]; 0.5% ovotransferrin in diet, d 28): 19.23 kg | Fecal score ([1]; 1% ovotransferrin in diet, d 0-7, scale ≤1 normal to 4 severe diarrhea): 1.57 | Fecal score ([1]; 1% ovotransferrin in diet, d 0-14 (Phase 1), scale ≤1 normal to 4 severe diarrhea): 1.61 | Fecal score ([1]; 1% ovotransferrin in diet, d 0-28 (Overall), scale ≤1 normal to 4 severe diarrhea): 1.58 | Body weight ([1]; 1% ovotransferrin in diet, d 7): 7.61 kg | ADFI (average daily feed intake) [1, 6]: 654.76 g/day | ADG (average daily gain) [1, 6]: 496.75 g/day | G:F (gain:feed ratio) [1, 6]: 0.759 | Fecal score ([1]; 1% ovotransferrin in diet, d 7-14, scale ≤1 normal to 4 severe diarrhea): 1.64 | ADFI (average daily feed intake) [1, 7]: 1043.29 g/day | ADG (average daily gain) [1, 7]: 645.02 g/day | G:F (gain:feed ratio) [1, 7]: 0.618 | Body weight ([1]; 1% ovotransferrin in diet, d 14): 11.09 kg | ADFI (average daily feed intake) [1, 8]: 1084.42 g/day | ADG (average daily gain) [1, 8]: 584.42 g/day | G:F (gain:feed ratio) [1, 8]: 0.539 | Body weight ([1]; 1% ovotransferrin in diet, d 21): 15.18 kg | ADFI (average daily feed intake) [1, 9]: 1390.69 g/day | ADG (average daily gain) [1, 9]: 853.90 g/day | G:F (gain:feed ratio) [1, 9]: 0.614 | Body weight ([1]; 1% ovotransferrin in diet, d 28): 21.16 kg | Microbiome diversity (Shannon index, Bray-Curtis PCoA) (gut microbiome; 2.5 grams/piglet/day in dry feed for 5 consecutive days, fecal samples): brought the microbiome diversity back to levels similar to the control piglets | Abundance of Veilloneaceae, Entreobacteriaceae, Paraprevotellaceae and Treponema (gut microbiome; 2.5 grams/piglet/day in dry feed for 5 days, indicator species analysis): Reductions to the initial control baselines
